According to US20170189511A1:

Each binder was assayed against HLA-A*24 (peptide-receptive MHC class I monomer of the UV-ligand exchange assay) (human) (assay: UV-ligand exchange with anti-b2m ELISA).

Row | Binder | peptide exchange yield [%]
1 | IFIEVFSHF [Peptide SEQ ID NO: 178 (…)] | 50 to 75
2 | KYMVYPQTF [Peptide SEQ ID NO: 267 (…)] | > 75
3 | RYSTGLAGNLL [Peptide SEQ ID NO: 221 (…)] | 50 to 75
4 | TYIESASEL [Peptide SEQ ID NO: 279 (…)] | 50 to 75
5 | EYQENFLSF [Peptide SEQ ID NO: 206 (…)] | 50 to 75
6 | DYTTWTALL [Peptide SEQ ID NO: 165 (…)] | > 75
7 | VYGFQWRHF [Peptide SEQ ID NO: 276 (…)] | > 75
8 | VYVSDIQEL [Peptide SEQ ID NO: 288 (…)] | 50 to 75
9 | GFFIFNERF [Peptide SEQ ID NO: 190 (…)] | 50 to 75
10 | HYSQELSLLYL [Peptide SEQ ID NO: 158 (…)] | > 75
11 | IYDDSFIRPVTF [Peptide SEQ ID NO: 180 (…)] | 50 to 75
12 | TYGDAGLTYTF [Peptide SEQ ID NO: 283 (…)] | 50 to 75
13 | IYTMIYRNL [Peptide SEQ ID NO: 210 (…)] | > 75
14 | DYLKGLASF [Peptide SEQ ID NO: 163 (…)] | > 75
15 | YYEVHKELF [Peptide SEQ ID NO: 175 (…)] | > 75
16 | KYIPYKYVI [Peptide SEQ ID NO: 223 (…)] | 50 to 75
17 | KFSSFSLFF [Peptide SEQ ID NO: 164 (…)] | 50 to 75
18 | VFKASKITF [Peptide SEQ ID NO: 191 (…)] | 50 to 75
19 | KYQDILETI [Peptide SEQ ID NO: 168 (…)] | > 75
20 | VYPWLGALL [Peptide SEQ ID NO: 177 (…)] | > 75
21 | VYRDETGELF [Peptide SEQ ID NO: 226 (…)] | 50 to 75
22 | TYSVSFPMF [Peptide SEQ ID NO: 195 (…)] | > 75
23 | VYEDQVGKF [Peptide SEQ ID NO: 170 (…)] | 20 to 49
24 | VFTRVSSFL [Peptide SEQ ID NO: 162 (…)] | 50 to 75
25 | EYNQWFTKL [Peptide SEQ ID NO: 176 (…)] | 50 to 75

Row | Binder | peptide exchange yield [%]
26 | IFLDYEAGTLSF [Peptide SEQ ID NO: 227 (…)] | > 75
27 | VHIPEVYLI [Peptide SEQ ID NO: 205 (…)] | 50 to 75
28 | TYIKPISKL [Peptide SEQ ID NO: 273 (…)] | 50 to 75
29 | RYFKGLVF [Peptide SEQ ID NO: 188 (RYFKGLVF)] | 50 to 75
30 | TYLRDQHFL [Peptide SEQ ID NO: 187 (…)] | > 75
31 | FYSRLLQKF [Peptide SEQ ID NO: 203 (…)] | 50 to 75
32 | IYSWILDHF [Peptide SEQ ID NO: 173 (…)] | > 75
33 | TYTTVPRVAF [Peptide SEQ ID NO: 172 (…)] | > 75
34 | QYLQDAYSF [Peptide SEQ ID NO: 272 (…)] | > 75
35 | EYINQGDLHEF [Peptide SEQ ID NO: 275 (…)] | 50 to 75
36 | YYVESGKLF [Peptide SEQ ID NO: 166 (…)] | > 75
37 | KYPVEWAKF [Peptide SEQ ID NO: 289 (…)] | > 75
38 | QYSSVFKSL [Peptide SEQ ID NO: 216 (…)] | > 75
39 | MYDSYWRQF [Peptide SEQ ID NO: 179 (…)] | > 75
40 | TYTQDFNKF [Peptide SEQ ID NO: 208 (…)] | 50 to 75
41 | YFDKVVTL [Peptide SEQ ID NO: 215 (YFDKVVTL)] | 20 to 49
42 | EYPLVINTL [Peptide SEQ ID NO: 219 (…)] | 50 to 75
43 | VYTLDIPVL [Peptide SEQ ID NO: 160 (…)] | > 75
44 | NYINRILKL [Peptide SEQ ID NO: 167 (…)] | > 75
45 | WYVNGVNYF [Peptide SEQ ID NO: 189 (…)] | 20 to 49
46 | LYIDRPLPYL [Peptide SEQ ID NO: 196 (…)] | 50 to 75
47 | YYLEVGKTLI [Peptide SEQ ID NO: 211 (…)] | > 75
48 | LYLDKATLI [Peptide SEQ ID NO: 198 (…)] | 50 to 75
49 | IFPQFLYQF [Peptide SEQ ID NO: 186 (…)] | > 75
50 | VFQNFPLLF [Peptide SEQ ID NO: 184 (…)] | > 75

Row | Binder | peptide exchange yield [%]
51 | LYLDIINLF [Peptide SEQ ID NO: 181 (…)] | > 75
52 | EFGSLHLEFL [Peptide SEQ ID NO: 194 (…)] | < 20
53 | SYALLTYMI [Peptide SEQ ID NO: 192 (…)] | > 75
54 | KYTSWYVAL [Peptide SEQ ID NO: 228 (…)] | > 75
55 | RYLNKAFHI [Peptide SEQ ID NO: 284 (…)] | 50 to 75
56 | AYLHSHALI [Peptide SEQ ID NO: 274 (…)] | > 75
57 | RYISDQLFTNF [Peptide SEQ ID NO: 278 (…)] | > 75
58 | LFIPSSKLLFL [Peptide SEQ ID NO: 171 (…)] | 50 to 75
59 | IYLVSIPEL [Peptide SEQ ID NO: 161 (…)] | > 75
60 | QYLENLEKL [Peptide SEQ ID NO: 224 (…)] | 50 to 75
61 | LYNKGFIYL [Peptide SEQ ID NO: 159 (…)] | > 75
62 | RFHPTPLLL [Peptide SEQ ID NO: 193 (…)] | > 75
63 | IYQLDTASI [Peptide SEQ ID NO: 182 (…)] | 50 to 75
64 | FFPPTRQMGLLF [Peptide SEQ ID NO: 217 (…)] | > 75
65 | VFTSTARAF [Peptide SEQ ID NO: 183 (…)] | 50 to 75
66 | AYTLIAPNI [Peptide SEQ ID NO: 169 (…)] | 50 to 75
67 | VYVGGGQIIHL [Peptide SEQ ID NO: 174 (…)] | 50 to 75
68 | LYHDIFSRL [Peptide SEQ ID NO: 271 (…)] | > 75
69 | LYLKLWNLI [Peptide SEQ ID NO: 214 (…)] | 50 to 75
70 | RYPDNLKHL [Peptide SEQ ID NO: 286 (…)] | 20 to 49
71 | RYPDNLKHLYL [Peptide SEQ ID NO: 280 (…)] | > 75
72 | IYKVGAPTI [Peptide SEQ ID NO: 185 (…)] | 50 to 75
73 | KFVDSTFYL [Peptide SEQ ID NO: 282 (…)] | > 75
74 | YYVYIMNHL [Peptide SEQ ID NO: 225 (…)] | 50 to 75
